Test [1] deals with T1, porcine CD163 with deletion of SRCR domain 5 on porcine alveolar macrophages (porcine, UniProt Q2VL90 47-1115).
T1 construct: also called PAM CD163-d5; pPAMΔ5 domain
T1 sequence: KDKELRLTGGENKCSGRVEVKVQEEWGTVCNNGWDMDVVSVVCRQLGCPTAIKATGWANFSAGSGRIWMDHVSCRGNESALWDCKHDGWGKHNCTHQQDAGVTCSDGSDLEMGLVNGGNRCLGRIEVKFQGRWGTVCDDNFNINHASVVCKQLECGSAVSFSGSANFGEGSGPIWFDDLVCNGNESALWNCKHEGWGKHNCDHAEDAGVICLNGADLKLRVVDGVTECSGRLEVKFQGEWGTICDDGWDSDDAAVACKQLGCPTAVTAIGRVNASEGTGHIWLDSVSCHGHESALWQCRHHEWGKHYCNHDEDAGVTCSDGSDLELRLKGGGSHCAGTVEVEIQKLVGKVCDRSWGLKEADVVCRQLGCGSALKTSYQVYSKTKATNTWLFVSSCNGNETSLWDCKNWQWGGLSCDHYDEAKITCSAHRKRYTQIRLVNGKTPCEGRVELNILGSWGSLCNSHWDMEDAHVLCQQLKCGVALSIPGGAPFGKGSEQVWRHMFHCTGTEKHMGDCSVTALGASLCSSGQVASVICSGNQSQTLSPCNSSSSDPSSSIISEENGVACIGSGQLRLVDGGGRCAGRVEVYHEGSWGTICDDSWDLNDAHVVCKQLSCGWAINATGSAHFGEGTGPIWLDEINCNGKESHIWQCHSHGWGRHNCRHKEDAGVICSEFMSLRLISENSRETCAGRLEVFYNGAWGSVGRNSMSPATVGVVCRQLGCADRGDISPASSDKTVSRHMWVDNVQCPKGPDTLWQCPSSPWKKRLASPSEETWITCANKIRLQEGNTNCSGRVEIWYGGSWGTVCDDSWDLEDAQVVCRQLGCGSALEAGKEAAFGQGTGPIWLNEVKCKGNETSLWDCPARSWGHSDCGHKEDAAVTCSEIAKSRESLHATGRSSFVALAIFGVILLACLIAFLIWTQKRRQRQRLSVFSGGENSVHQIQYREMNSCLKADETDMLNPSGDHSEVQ
Description: flow cytometry, PAM CD163-d5. How it is done: (§1) Periplasmic Extract (P.E) from the selected clones were incubated with anti-c-myc antibody (Roche; Cat. nr. 11667203001), specific to the c-myc tag present in the soluble VHH, for 30 minutes with agitation at room temperature (RT). The mix (P.E + anti-c-myc antibody) was added to the pPAM or pPAMΔ5 domain (cells with deletion of SRCR domain 5) and incubated for 60 min at 4° C. with gentle shaking.
(§2) Cells were washed 3x with 150 µl/well of FACS Buffer and incubated with 50 µl/well of the secondary antibody GAM-APC for 30 min at 4° C. and protected from the light, with shaking.

In test [2] the target is T2, native membrane bound porcine CD163 on primary porcine alveolar macrophages (porcine, UniProt Q2VL90 47-1115).
T2 construct: also called PAM CD163-WT; pPAM
T2 sequence: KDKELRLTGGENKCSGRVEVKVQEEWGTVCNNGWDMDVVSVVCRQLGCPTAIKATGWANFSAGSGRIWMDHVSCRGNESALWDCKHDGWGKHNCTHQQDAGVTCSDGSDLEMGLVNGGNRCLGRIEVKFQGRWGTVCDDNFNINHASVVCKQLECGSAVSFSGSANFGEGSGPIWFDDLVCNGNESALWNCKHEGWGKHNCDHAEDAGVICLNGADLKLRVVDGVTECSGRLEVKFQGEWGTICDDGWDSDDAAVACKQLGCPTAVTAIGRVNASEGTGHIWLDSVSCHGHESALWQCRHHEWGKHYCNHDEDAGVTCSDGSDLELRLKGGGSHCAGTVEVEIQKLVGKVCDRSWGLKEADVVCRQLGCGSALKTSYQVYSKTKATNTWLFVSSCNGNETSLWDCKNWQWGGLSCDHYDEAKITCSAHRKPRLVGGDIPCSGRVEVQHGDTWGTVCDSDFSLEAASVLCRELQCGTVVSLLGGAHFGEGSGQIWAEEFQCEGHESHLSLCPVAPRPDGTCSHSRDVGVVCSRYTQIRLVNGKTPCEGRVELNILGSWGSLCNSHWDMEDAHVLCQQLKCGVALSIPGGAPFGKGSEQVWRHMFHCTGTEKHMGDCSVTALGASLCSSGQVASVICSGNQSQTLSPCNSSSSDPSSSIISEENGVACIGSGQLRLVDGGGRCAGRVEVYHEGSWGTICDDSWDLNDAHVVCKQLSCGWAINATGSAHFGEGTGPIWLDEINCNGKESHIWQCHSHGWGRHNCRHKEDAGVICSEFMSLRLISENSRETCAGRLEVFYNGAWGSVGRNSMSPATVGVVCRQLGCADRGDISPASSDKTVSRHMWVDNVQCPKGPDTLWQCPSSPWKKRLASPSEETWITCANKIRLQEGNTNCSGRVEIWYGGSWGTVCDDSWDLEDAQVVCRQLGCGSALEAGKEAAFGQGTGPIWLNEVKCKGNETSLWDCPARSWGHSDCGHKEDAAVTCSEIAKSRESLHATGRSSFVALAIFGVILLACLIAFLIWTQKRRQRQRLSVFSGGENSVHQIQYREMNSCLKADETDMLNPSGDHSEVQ
As to the kind of experiment: flow cytometry, PAM CD163-WT, 4C. The procedure: as §1, §2

B1: VHH 011 (2B06) (VHH)
VHH: EVQLVESGGGLVQAGGSLRLSCAASGRTLSVYGTGWFRQAPGKEREFVAGISGTTGSTLYADSVKGRFTISRDNAKNTVYLQMNSLKSEDTALYYCAAGGRVYITTSSWAYWGQGTQVTVSS
notes: Llama single domain antibody; also called 57(#11); VHCDR3 57(#11); not shown: tags: c-myc tag in periplasmic extract (ELISA, FACS); FLAG and His tags in purified VHH (SPR, infection assays)
Consider B1, for which, in test [1], the “% Binding” value is 1.91% and the MFI came out at 1610 MFI. In addition, in test [2], the “% Binding” value was determined as 74.1% and the MFI worked out at 4270 MFI.

B2: VHH 018 (3E01) (VHH)
VHH: QVQLQESGGGLVQVGGSLRLSCVASGRAPSRYVMGWFRQAPGQEREFVAGIAWSGRAPYADSVKGRSTISRDNAKNTVYLQMNSLKPEDTGVYYCAGGEGAIRWTTLDAYDYWGQGTQVTVSS
notes: Llama single domain antibody; also called 49(#18); VHCDR3 49(#18); not shown: tags: c-myc tag in periplasmic extract (ELISA, FACS); FLAG and His tags in purified VHH (SPR, infection assays)
For the molecule B2, in test [1], the “% Binding” value stood at 1.96% and the MFI was found to be 1400 MFI. Also, in test [2], the “% Binding” value came out at 80.1% and the MFI was 5210 MFI.

B3: VHH 020 (3H11) (VHH)
VHH: QVQLQESGGGLVQVGGSLRLSCVASGRTPSRYVMGWFRQAPGQEREFVAGIAWSGRAPYADSVKGRFVISRDSAKNTVYLQMNSLKSEDTGVYYCAGGEGAILWTTPGAYNYWGQGTQVTVSS
notes: Llama single domain antibody; also called 48(#20); VHCDR3 48(#20); not shown: tags: c-myc tag in periplasmic extract (ELISA, FACS); FLAG and His tags in purified VHH (SPR, infection assays)
On to B3, for which, in test [1], the “% Binding” value came out at 1.98% and the MFI came out at 1330 MFI. Also, in test [2], the “% Binding” value stood at 95.5% and the MFI amounted to 14000 MFI.

B4: VHH 019 (3E11) (VHH)
VHH: QVQLQESGGGLVQVGSSLRLSCVTSGRTPSRYVMGWFRQAPGQEREFVAAISWSGRAPYADSVKGRFTISRDNAKNTVYLQMNSLKPEDTGVYYCAGGEGAIKWTTLDAYDYWGQGTQVTVSS
notes: Llama single domain antibody; also called 47(#19); VHCDR3 47(#19); not shown: tags: c-myc tag in periplasmic extract (ELISA, FACS); FLAG and His tags in purified VHH (SPR, infection assays)
Take B4: in test [1], the “% Binding” value turned out to be 1.83% and the MFI was 1530 MFI. In test [2], the “% Binding” value worked out at 93.8% and the MFI stood at 12500 MFI.

B5: VHH 015 (2G01) (VHH)
VHH: QVQLVESGGGLVQAGDTLRLSCTASGRTFSSYSMGWFRQAPGKEREFVAAITWNGYITNYADSVKGRFTISRDNTKNTVFLQMNSLKPEETAVYYCAATTFSTTSPISRTYNYWGPGTQVTVSS
notes: Llama single domain antibody; also called 150(#15); VHCDR3 150(#15); not shown: tags: c-myc tag in periplasmic extract (ELISA, FACS); FLAG and His tags in purified VHH (SPR, infection assays)
Take B5: the “% Binding” value in test [1] was determined as 1.6%; in test [2] it was 81.5%. Further, the MFI stood at 1130 MFI in test [1] and 6220 MFI in test [2].

B6: VHH 012 (2C07) (VHH)
VHH: QLQLVESGGGLVQAGGSLRLSCVASGRTFSRYAMGWFRQAPGKEREFVAAIAWSTGSTYYANSVKGRFAISGDNAKNTVYLQMNSLKPEDTAVYYCAAETRYCSGFGCLDPRTYGSWGQGTQVTVSS
notes: Llama single domain antibody; also called 41(#12); VHCDR3 41(#12); not shown: tags: c-myc tag in periplasmic extract (ELISA, FACS); FLAG and His tags in purified VHH (SPR, infection assays)
Regarding B6, in test [1], the “% Binding” value is 2.13% and the MFI amounted to 1580 MFI. In test [2], the “% Binding” value amounted to 97.9% and the MFI was determined as 26500 MFI.

B7: VHH 002 (1B04) (VHH)
VHH: QVQLVESGGGLVQAGGSLRLSCAASGLTFVTYSMGWFRQAPGKEREFVAAHRWSGSAYYAEHADSVEGRFTISRDYAKNMLYLQMNSLKHEDTAVYYCAAGVGSAAQYRYWGRGTQVTVSS
notes: Llama single domain antibody; also called 76(#2); VHCDR3 76(#2); not shown: tags: c-myc tag in periplasmic extract (ELISA, FACS); FLAG and His tags in purified VHH (SPR, infection assays)
Consider B7, for which, in test [1], the “% Binding” value amounted to 1.74% and the MFI amounted to 1260 MFI. In test [2], the “% Binding” value turned out to be 31.8% and the MFI was found to be 1980 MFI.

B8: VHH 016 (2H11) (VHH)
VHH: EVQLVESGGGLVQAGGSLRLSCAASGRTFAPGSMGWFRQAPGKEREFVAAHRWSGSAYYADYADSVEGRFTISRDYAKNMVYLQMNSLKPGDTAVYYCAAGVGSAAQYTYWGRGTQVTVSS
notes: Llama single domain antibody; also called 77(#16); VHCDR3 77(#16); not shown: tags: c-myc tag in periplasmic extract (ELISA, FACS); FLAG and His tags in purified VHH (SPR, infection assays)
On to B8, for which the “% Binding” value in test [1] was found to be 1.66%; in test [2], 61%. Besides, the MFI worked out at 1360 MFI in test [1] and 3210 MFI in test [2].

B9: VHH 008 (1H01) (VHH)
VHH: QVQLVESGGGLVQAGGSLRLSCAASGRTFGTYSMGWFRQAPGKEREFVAAHRWSGSAYYAEHADSVEGRFTISRDYAKNMLYLQMNSLKHEDTAVYYCAAGVGSEAQYRYWGRGTQVTVSS
notes: Llama single domain antibody; also called 78(#8); VHCDR3 78(#8); not shown: tags: c-myc tag in periplasmic extract (ELISA, FACS); FLAG and His tags in purified VHH (SPR, infection assays)
As for B9, in test [1], the “% Binding” value is 2.7% and the MFI stood at 1460 MFI. Further, in test [2], the “% Binding” value came to 38.8% and the MFI amounted to 2370 MFI.

B10: VHH 017 (3D03) (VHH)
VHH: QLQLVESGGGLVQPGGSLRLSCAASGFTLDDYTIGWFRQAPGKEREGVSCINSITSNTYYADSVKGRFTISRDNAKNTVYLQMNSLTAEDTAIYYCAADSGLFSGSSCLKYRAMRFGSWGQGTQVTVSS
notes: Llama single domain antibody; also called 29(#17); VHCDR3 29(#17); not shown: tags: c-myc tag in periplasmic extract (ELISA, FACS); FLAG and His tags in purified VHH (SPR, infection assays)
B10: in test [1], the “% Binding” value was determined as 2.14% and the MFI was 1450 MFI. For the same molecule, in test [2], the “% Binding” value is 95.3% and the MFI turned out to be 13500 MFI.

B11: VHH 001 (1B02) (VHH)
VHH: EVQLVESGGGLVQAGGSLSLSCAASGGTLAMYAMSWFRQAPGKDRKFVAAINTSGRYSRYADSVKGRFTISRDNAKNTATLQMNSLEPEDTAVYYCAATDKGNWALAMSYDYWGQGTQVTVSS
notes: Llama single domain antibody; also called 144(#1); VHCDR3 144(#1); not shown: tags: c-myc tag in periplasmic extract (ELISA, FACS); FLAG and His tags in purified VHH (SPR, infection assays)
In the case of B11, in test [1], the “% Binding” value was 2.15% and the MFI is 1430 MFI. In addition, in test [2], the “% Binding” value worked out at 0.97% and the MFI came to 742 MFI.

B12: VHH 023 (4E10) (VHH)
VHH: QVQLVESGGGLVQAGGSLRLSCVASSRTSSTYAMGWFRQGPGKERDFVAIISFGGTFYADSVKGRFTISRDNAKNTVYLQMNSLKPEDTAVYYCAAGRTLSKRADSYASWGQGTQVTVSS
notes: Llama single domain antibody; also called 70(#23); VHCDR3 70(#23); not shown: tags: c-myc tag in periplasmic extract (ELISA, FACS); FLAG and His tags in purified VHH (SPR, infection assays)
On to B12, for which the “% Binding” value was determined as 1.53% in test [1] and 8.75% in test [2]. For the same molecule, the MFI worked out at 1260 MFI in test [1] and 1390 MFI in test [2].
